The numbers were not newly measured in PMC9852560, which cites them from elsewhere.

The target in the data set is laminin gamma1 (UniProt P02468). The data set can be described thus: SEC. For orientation: SEC sorts molecules by how far they enter the pores of the column.
UniProt P02468, sequence (P02468 34-1607): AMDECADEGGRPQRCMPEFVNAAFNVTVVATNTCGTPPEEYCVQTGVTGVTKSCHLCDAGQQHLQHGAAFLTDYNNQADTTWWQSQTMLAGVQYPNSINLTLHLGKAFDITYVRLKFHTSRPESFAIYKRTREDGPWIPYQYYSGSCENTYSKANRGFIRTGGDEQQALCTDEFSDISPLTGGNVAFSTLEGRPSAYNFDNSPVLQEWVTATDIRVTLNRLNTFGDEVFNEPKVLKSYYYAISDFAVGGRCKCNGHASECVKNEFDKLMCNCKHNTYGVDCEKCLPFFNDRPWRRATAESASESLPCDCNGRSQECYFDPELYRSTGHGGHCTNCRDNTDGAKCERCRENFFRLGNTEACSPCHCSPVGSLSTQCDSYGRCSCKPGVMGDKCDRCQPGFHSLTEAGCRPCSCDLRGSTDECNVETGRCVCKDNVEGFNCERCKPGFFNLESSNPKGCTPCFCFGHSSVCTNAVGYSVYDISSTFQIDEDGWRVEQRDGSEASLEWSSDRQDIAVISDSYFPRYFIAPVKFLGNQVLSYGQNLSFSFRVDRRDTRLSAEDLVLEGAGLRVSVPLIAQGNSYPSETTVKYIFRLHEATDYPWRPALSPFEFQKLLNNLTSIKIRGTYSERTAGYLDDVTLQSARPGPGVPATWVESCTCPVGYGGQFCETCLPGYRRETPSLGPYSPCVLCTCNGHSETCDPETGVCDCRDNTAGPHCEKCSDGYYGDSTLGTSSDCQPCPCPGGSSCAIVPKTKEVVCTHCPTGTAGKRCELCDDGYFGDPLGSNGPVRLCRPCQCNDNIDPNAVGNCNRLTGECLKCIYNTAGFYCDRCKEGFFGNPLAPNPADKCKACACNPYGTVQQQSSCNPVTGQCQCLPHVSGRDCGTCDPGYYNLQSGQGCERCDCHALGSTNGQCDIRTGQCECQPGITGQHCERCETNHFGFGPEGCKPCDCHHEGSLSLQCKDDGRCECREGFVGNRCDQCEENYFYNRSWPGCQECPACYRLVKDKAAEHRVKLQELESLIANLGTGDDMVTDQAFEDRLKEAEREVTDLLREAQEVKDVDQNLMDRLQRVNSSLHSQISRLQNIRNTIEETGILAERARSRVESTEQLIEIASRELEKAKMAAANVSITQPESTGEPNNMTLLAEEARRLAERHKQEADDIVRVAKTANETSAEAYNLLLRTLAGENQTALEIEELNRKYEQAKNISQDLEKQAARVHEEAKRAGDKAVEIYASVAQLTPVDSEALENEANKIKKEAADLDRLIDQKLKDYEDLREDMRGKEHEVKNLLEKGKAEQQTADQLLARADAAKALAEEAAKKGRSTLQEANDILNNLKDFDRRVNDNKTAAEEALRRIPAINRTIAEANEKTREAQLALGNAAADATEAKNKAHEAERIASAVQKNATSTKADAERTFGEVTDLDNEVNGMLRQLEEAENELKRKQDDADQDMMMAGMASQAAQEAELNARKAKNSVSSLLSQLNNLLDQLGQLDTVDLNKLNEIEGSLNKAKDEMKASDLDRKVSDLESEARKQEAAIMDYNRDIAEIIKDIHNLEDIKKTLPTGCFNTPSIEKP

A word on the Kd: it is the equilibrium constant for the complex coming apart. Turning to laminin beta1 (from UniProt P02469), the Kd is 21 µM.
